In patent publication US20190202914A1:

Molecular target: cynoCTLA-4-his protein (CT4-05227, AcroBio) (cyno) (UniProt G7PL88)
Assay: SPR, Biacore T200, antibody immobilised, CTLA-4-his injected, 1:1 model

Binder	Kd [nM]	koff [s⁻¹]	kon [M⁻¹ s⁻¹]
CL5′-dPTM′ (antibody, human IgG1, V domains shown) VH: EVQLVESGGGLIQPGGSLRLSCAVSGFTVSKNYMSWVRQAPGKGLEWVSVVYSGGSKTYADSVKGRFTISRDNSKNTLYLQMNSLRAEDTAVYYCARAVPHSPSSFDIWGQGTMVTVSS	0.0591	0.000308	5.21e+06
CL5′-eA-dPTM′ (antibody, human IgG1, V domains shown) VH: EVQLVESGGGLIQPGGSLRLSCAVSGFTVSKNYMSWVRQAPGKGLEWVSVVYSGGSKTYADSVKGRFTISRDNSKNTLYLQMNSLRAEDTAVYYCARAVPHSPSSFDIWGQGTMVTVSS	0.0243	0.00011	4.55e+06
